Measurements as given in patent publication US20250129140A1 (ICAHN SCHOOL OF MEDICINE AT MOUNT SINAI, published 2025).

B1: 14E1 (antibody, V domains shown)
VH: QVQLVQSGAEVKKPGASVKVSCKASGYTFTSYSISWVRQAPGQGLEWMGWINTYNGNTNYAQRVQARVTMTTDTSTSTAYMELRSLRSDDTAVYYCARDHGFFFDYWGQGNLVTVSS
VL: DIQLTQSPSFLSASVGDRVTITCWASQGISSYLAWYQQKPGKAPKLLIYAASTLQSGVPSRFSGSGSGTEFTLTISSLQPEDFATYYCQQLNSYPYTFGQGTQLEIK
notes: also called 14E1 (ms)
B2: 15G11 (antibody, V domains shown)
VH: QVQLQESGPGLVKPSQTLSLTCTVSGGSISSGYYYWNWIRQHPGKGLECIGYIYYSGTTYYNPSLKSRLFISVDTSKNQFSLKLRSVTAADTAVYYCARGGLGAFDIWGQGTMVTVSS
VL: EIVLTQSPGTLSLSPGERATLSCRASQSVSSSYLAWYQQKPGQAPRLLIYGASSRAPGIPDRFSGTGSGTDFTLTISRLEPEDFAVYYCQQYGISPLTFGGGTKVEIK
notes: also called 15G11 (ms); anti-gH mAb 15G11
B3: 9A12 (antibody, V domains shown)
VH: EVQLVESGGVLVQPGGSLRLSCAASGFTFSSHEMNWVRQAPGKGLEWISYISSTGSTIYDADSVKGRFTISRDNAKNSLYLQMNSLRAEDTAVYYCARSSGWYRNYSYGMDVWGQGTTVTVSS
VL: DIQMAQSPSSLSASVGDRVTITCRASQGIYNYLAWFQQKPGKAPKSLIYAASSLQTGVPSKFSGSGSGTDFTLTISNLQPEDFATYYCQQYNSFPRTFGQGTKVEIK
notes: also called 9A12 (ms); anti-gH mAb 9A12
B4: 5C3 (antibody, V domains shown)
VH: QVQLQQPGAELVRPGASVKLSCKASGYTFTTYWMNWVKQRPGQGLEWIGMIDPSDSETHYNQMFKDKATLTVDTSSSTAYMQLSSLTSEDSAVYYCARGRSWFVYWGQGTLVTVSS
VL: DIVLTQSPASLAVSLGQRATISCRASKSVSSSGYSYVHWYQQKPGQPPKLLIYLASNLESGVPARFSGSGSGTDFTLNIHSVEEEDAATYYCQHNRELPYTFGGGTKLEIKR
B5: 13G1 (antibody, V domains shown)
VH: QVTLKESGPVLVKPTETLTLTCTVSGFSLYNARMGVTWIRQPPGKALEWLAHIFSNDERSYTSSLKNRLTISKDTSKSQVVLTMTNMDPVDTATYYCARIDYSNYIGNWFDPWGQGTLVTVSS
VL: DIQMTQSPSSLSASVGDRVTITCRASQSISNYLNWYQQKPGKAPKLLIYAASSLQGGVPSRFSGSGSGTDFTLTISSLQPEDFTTYYCQQSYSTPFTFGGGTKVEIK
notes: also called 13G1 (ms); anti-gH mAb 13G1

What was measured:
[1] = target: T1, gH/gL of HCMV strain AD169 (on virus AD169 and on reporter virus AD169R) (human cytomegalovirus (strain AD169), UniProt P12824 24-743; P16832 31-278); assay: flow cytometry on ARPE-19 cells infected with AD169R (GFP reporter), 6 dpi, antibody 2 µg/mL, anti-mouse AF647 secondary
[2] = target: T1, gH/gL of HCMV strain AD169 (on virus …); assay: cell-based or functional assay
[3] = target: T2, gH/gL of HCMV strain TB40/E (on virus) (human cytomegalovirus (strain TB40/E)); assay: cell-based or functional assay
[4] = target: T1, gH/gL of HCMV strain AD169 (on virus …); assay: cell-based or functional assay; remark: listed apart in the source
[5] = target: T2, gH/gL of HCMV strain TB40/E (on virus); assay: cell-based or functional assay; remark: listed apart in the source
[6] = target: gH/gL of HCMV strain Towne (on virus) (human cytomegalovirus (strain Towne), UniProt P17176 30-742); assay: cell-based or functional assay
[7] = target: gH/gL of HCMV strain TR (on virus) (human cytomegalovirus (strain TR)); assay: cell-based or functional assay
[8] = target: T1, gH/gL of HCMV strain AD169 (on virus …); assay: cell-based or functional assay; remark: listed apart in the source
[9] = target: T3, recombinant HCMV pentamer (strain VR1814) consisting of gH, gL, UL128, UL130 and UL131A (human cytomegalovirus (strain VR1814)); assay: BLI (Octet RED); antibody captured on anti-mouse Fc (AMC) biosensor, recombinant pentamer 100 µg/mL in solution; 1:1 model
T3 construct: also called recombinant pentamer; Native Antigen CMV-PENT-100

[10] = target: T2, gH/gL of HCMV strain TB40/E (on virus); assay: cell-based or functional assay; remark: listed apart in the source
[11] = target: T1, gH/gL of HCMV strain AD169 (on virus …); assay: cell-based or functional assay; remark: listed apart in the source
[12] = target: gH/gL of HCMV strain AD169 (on virus AD169 and on reporter virus AD169R) (human cytomegalovirus (strain AD169), UniProt P12824 24-743; P16832 31-278); assay: flow cytometry on ARPE-19 cells infected with AD169R (GFP reporter), 6 dpi, antibody 2 µg/mL, anti-mouse AF647 secondary; remark: listed apart in the source

Chain of gH/gL of HCMV strain Towne (on virus) (P17176 30-742): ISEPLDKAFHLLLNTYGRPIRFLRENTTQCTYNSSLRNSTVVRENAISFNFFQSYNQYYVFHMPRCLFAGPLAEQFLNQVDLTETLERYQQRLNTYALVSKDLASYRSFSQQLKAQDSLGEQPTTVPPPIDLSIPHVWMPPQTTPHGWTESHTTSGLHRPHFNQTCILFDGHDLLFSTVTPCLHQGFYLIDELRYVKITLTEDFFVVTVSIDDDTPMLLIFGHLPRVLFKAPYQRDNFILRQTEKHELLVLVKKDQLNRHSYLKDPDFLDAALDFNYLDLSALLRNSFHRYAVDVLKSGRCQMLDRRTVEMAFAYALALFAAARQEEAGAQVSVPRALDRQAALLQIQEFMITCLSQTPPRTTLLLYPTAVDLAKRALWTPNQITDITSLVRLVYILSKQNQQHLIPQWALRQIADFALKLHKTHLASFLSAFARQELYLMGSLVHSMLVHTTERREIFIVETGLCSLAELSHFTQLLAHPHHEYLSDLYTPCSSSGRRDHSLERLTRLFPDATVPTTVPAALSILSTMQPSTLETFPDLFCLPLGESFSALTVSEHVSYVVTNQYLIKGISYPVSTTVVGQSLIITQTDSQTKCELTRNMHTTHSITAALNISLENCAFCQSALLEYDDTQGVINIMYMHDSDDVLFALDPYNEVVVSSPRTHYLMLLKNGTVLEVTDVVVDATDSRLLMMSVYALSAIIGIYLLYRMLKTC

Binder | Q2, percent of cells GFP+ and Alexa Fluor 647+ [1] | IC50(ARPE-19) AD169R, virus neutralization [2] | IC50(HTR-svNeo) AD169R, virus neutralization [2] | IC50(ARPE-19) TB40/E, virus neutralization [3] | IC50(HTR-svNeo) TB40/E, virus neutralization [3] | IC50(MRC5/NHDF) AD169, virus neutralization [4] | IC50(MRC5/NHDF) AD169R, virus neutralization [4] | IC50(MRC5/NHDF) TB40/E, virus neutralization [5] | IC50(MRC5/NHDF) Towne, virus neutralization [6] | IC50(MRC5/NHDF) TR, virus neutralization [7] | IC50(THP-1) AD169R, virus neutralization [8] | Kd [9] | koff [9] | kon [9] | IC50(THP-1) TB40/E, virus neutralization [10] | IC50 of infection, AD169R neutralization (murine constant regions) [11] | neutralization of BADrUL131-C4 infection at the highest concentrations [11] | Q2, percent of cells GFP+ and Alexa Fluor 647+ [12]
B1 | 3.68% | 0.11 µg/mL | 19.2 µg/mL | 3.06 µg/mL | > 50 µg/mL | 0.91 µg/mL | 1.78 µg/mL | 0.89 µg/mL | > 50 µg/mL | > 50 µg/mL | 0.02 µg/mL | 64.6 nM | 0.00158 s⁻¹ | 24400 M⁻¹ s⁻¹ | – | – | – | –
B2 | 0.4% | 0.24 µg/mL | 0.44 µg/mL | 0.09 µg/mL | 0.41 µg/mL | 0.31 µg/mL | 0.51 µg/mL | 0.5 µg/mL | 0.87 µg/mL | 3.51 µg/mL | 0.01 µg/mL | 2.28 nM | 8.69e-05 s⁻¹ | 38200 M⁻¹ s⁻¹ | 0.39 µg/mL | 0.17 µg/mL | > 90% | –
B3 | – | 1.28 µg/mL | ~1.8 µg/mL | 1.1 µg/mL | 0.72 µg/mL | 0.77 µg/mL | 1.52 µg/mL | 1.09 µg/mL | 2.53 µg/mL | 6.96 µg/mL | 0.08 µg/mL | 3.47 nM | 8.6e-05 s⁻¹ | 24800 M⁻¹ s⁻¹ | – | – | > 90% | –
B4 | – | – | – | – | – | – | – | – | – | – | – | – | – | – | – | – | – | 3.37%
B5 | 0.89% | 1.03 µg/mL | 1.82 µg/mL | 1.01 µg/mL | 1.12 µg/mL | 15.9 µg/mL | 0.58 µg/mL | 0.89 µg/mL | 1.09 µg/mL | 3.26 µg/mL | 0.03 µg/mL | 5.05 nM | 6.51e-05 s⁻¹ | 12900 M⁻¹ s⁻¹ | 0.02 µg/mL | – | > 90% | –
